Data from US12577311 (dated 2026).
Substitutions are numbered along the chain they refer to. Like-named read-outs stand apart in the source and are kept apart here.

B1: anti-CAIX (G36) CAR (scFv, V domains shown)
VH: EVQLVQSGGGVVQPGGSLRLSCAASGFPFSSYAMSWVRQAPGKGLEWVSAISANGGTTYYADSVKGRFTISRDNSKNTLYLQMNSLRAEDTAVYYCANNGNYRGAFDIWGQGTMVTVSS
VL: QSVLTQPPSVSGAPGQRVTISCTGSSSNIGAGFDVHWYQQLPGTAPKLLIYGNTNRPSGVPDRFSGSKSGTSASLAITGLQAEDETDYYCQSYDSRLSAWVFGGGTKLTVLG
B2: G45 (antibody, V domains shown)
VH: B1 VH with E1Q, V11L, Q13R, M114T
VL: QSVLTQPPSVSGAPGQRITISCTGSSSNIGAGYDVHWYQQVPGKAPKVVIYGNNNRPSGVPDRFSGSKSGASASLAITGLQTEDEADYYCQSYDKSLTWVFGGGTKVTVLG
B3: G10 (antibody, V domains shown)
VH: B1 VH with E1Q, V11L
VL: QSVLTQPPSVSGAPGQRVTISCTGSSSNIGAGYDVHWYQQLPGTAPKLLIYGNSNRPSGVPDRFSGSKSGSSASLAITGLQAEDEAHYYCQSYDRSLSWVFGGGTKLTVLG
B4: G40 (antibody, V domains shown)
VH: QVQLVQSGGGLVQPGGSLRLSCAASGFTFSSYAMSWVRQAPGKGLEWVSAISGSGGSTYYADSVKGRFTISRDNSKNTLYLQMNSLRAEDTAVYYCATYGDYGSLDYWGQGTLVTVSS
VL: B1 VL with F33Y, G52A, T54N, T86A, R96S, S98R, T109A
B5: G119 (antibody, V domains shown)
VH: B1 VH with E1Q, V11L, T116I
VL: B1 VL with F33Y, T78I, E83D, T86A, R96T, S98R, A99V, V101M
B6: G9 (antibody, V domains shown)
VH: B4 VH with V5Q, Q6E, T98R, Y99S, G100H, D101S, Y102S, S104G, L105F
VL: B1 VL with A31R, F33Y, D34N, T86G, R96S
B7: G37 (antibody, V domains shown)
VH: B1 VH with E1Q
VL: B1 VL with V18I, S26R, G32D, F33Y, G52A, T54N, Y89F, R96S, L108V
B8: G106 (antibody, V domains shown)
VH: B1 VH with V11L, P28T, M114T
VL: B1 VL with K47R, T54N, Y89F, R96S, L108V, G112R
B9: G36 (antibody, V domains shown)
VH: B1 VH
VL: B1 VL
B10: G39 (antibody, V domains shown)
VH: not shown
VL: QSVLTQPPSVSGAPGQRVTISCTGSSSNIGRGYNVHWYQQLPGTAPKLLIYDNTNRPSGVPARFSGSKSATSASLAITGLQADDEADYYCQSYDSGLRWVFGGGTKLTLLR
B11: G6 (antibody, V domains shown)
VH: QVQLVQSGGGLVQPGGSLRLSCAASEFTFGTYAMTWVRQAPGKGLEWVSAVSGSGGSTYYADSVKGRFTISRDNSRNTLYLQMNSLRADDTAVYYCARGPVLRYGFDIWGQGTMVIVSS
VL: QSVLTQPPSVSGAPGQRITISCTGSRSNIGADYDVHWYQQLPGTAPKLLIYANNNRPSGVPGRFSASKSGTSASLAISGLQAEDEADYYCQSYDSSLRAWVFGGGTKLAVLG
B12: G57 (antibody, V domains shown)
VH: QVQLVQSGGGVVQPGRSLRLSCAASGFTFSSYGMHWVRQAPGKGLEWVAVISYDGSNKYYADSVKGRFTISRDNSKNTLYLQMNSLRAEDTAVYYCAREAPYSSSLDAFDIWGQGTMVTVSS
VL: QSVLTQPPSVSGAPGQRVTISCTGSSSNIGRGYNVHWYQQLPGTAPKLLIYGNSNRPSGVPDRFSGSSSGNTASLTITGAQAEDEADYYCHSRDNNGHHIFGGGTKLTVLS
B13: G125 (antibody, V domains shown)
VH: EVQLVESGGGVVQPGRSLRLSCAASGFTFSSYGMHWVRQAPGKGLEWVSAISGSGGSTYYADSVKGRFTISRDNAKNTLYLQMNSLRAEDTAVYYCARAAVTGGFDPWGQGTLVTVSS
VL: QPGLTQPPSVSVAPGQTARITCGGDNIGRKSVHWYQQRPGQAPILVIRDDRDRPSGIPERFSGSSSVNTATLIISRVEAGDEADYYCQVWDSSSKHYVFGPGTKVTALG
B14: G27 (antibody, V domains shown)
VH: QVTLKESGGGVVQPGTSLRLSCAASGFTFSNYAMTWVRQAPGKGLEWVGLISYDGSVTHYTDSVKGRFTISRDNAKNSLYLQMNTLRADDTAVYYCARGSGYQEHWGQGTLVTVSS
VL: LPVLTQPPSVSVAPGQTARITCGGNNIGSKSVEWYQQKPGQAPVLVIYYDSDRPSGIPERFSGSNSGNTATLTISRVEAGDEADYYCQVWDSSSDHHVVFGGGTKLTVLG

Legend:
PE labeled CAIX protein [1] = target: T1, PE labeled CAIX protein (UniProt Q16790 38-414); experiment: FACS binding
PE labeled CAIX protein [2] = target: T1, PE labeled CAIX protein; experiment: FACS binding; remark: listed apart in the source
CAIX [3] = target: T2, CAIX (UniProt Q16790 38-414)
CAIX [4] = target: T2, CAIX; remark: listed apart in the source
CAIX [5] = target: T2, CAIX; remark: listed apart in the source

Binder | EC50 (PE labeled CAIX protein [1]) [µg/mL] | EC50 (PE labeled CAIX protein [2]) [µg/mL] | Kd (CAIX [3]) [nM] | Kd (CAIX [4]) [nM] | Kd (CAIX [5]) [nM]
B1 | 0.132 | 0.132 | – | – | –
B2 | – | – | 12.5 | 12.5 | 12.5
B3 | – | – | 1.62 | 1.62 | 1.62
B4 | – | – | 21.8 | 21.8 | 21.8
B5 | – | – | 1.49 | 1.49 | 1.49
B6 | – | – | 99.6 | 99.6 | 99.6
B7 | – | – | 1.89 | 1.89 | 1.89
B8 | – | – | 3.2 | 3.2 | 3.2
B9 | – | – | 3.22 | 3.22 | 3.22
B10 | – | – | 3.43 | 3.43 | 3.43
B11 | – | – | 25.9 | 25.9 | 25.9
B12 | – | – | 4.25 | 4.25 | 4.25
B13 | – | – | 40.3 | 40.3 | 40.3
B14 | – | – | 25.1 | 25.1 | 25.1
